Substrate: Oc1ccc(Cc2nc3c(Cc4ccccc4)nc(-c4ccc(O)cc4)cn3c2O)cc1
Test: luminescence, extrapolated peak intensity, Hill fit
Assay type: biochemical, Gaussia princeps (in: crustaceans)
Details: free GLuc 0.05 µM, PBS, O2 as co-substrate, 0.1-30 µM CLZ

B1: Gaussia luciferase (GLuc) (Gaussia princeps (in: crustaceans); M127L/M60L) (protein)
chain: KPTENNEDFNIVAVASNFATTDLDADRGKLPGKKLPLEVLKELEANARKAGCTRGCLICLSHIKCTPKMKKFIPGRCHTYEGDKESAQGGIGEAIVDIPEIPGFKDLEPLEQFIAQVDLCVDCTTGCLKGLANVQCSDLLKKWLPQRCATFASKIQGQVDKIKGAGGD
  K0.5: 9.8 (95% CI [6.2 µM, 43.1 µM]) µM

— publication PMC12718255, “Quantitative assessment of porin-mediated solute transport in biomimetic membranes” (Applied Microbiology and Biotechnology, 2025)
